{
  "source": "paper PMC4066782",
  "about": "“The telomerase inhibitor Gno1p/PINX1 activates the helicase Prp43p during ribosome biogenesis” (Nucleic Acids Research, 2014)",
  "target": "Prp43p-HIS (S. cerevisiae, UniProt P53131 1-767)",
  "sequence (P53131 whole entry)": "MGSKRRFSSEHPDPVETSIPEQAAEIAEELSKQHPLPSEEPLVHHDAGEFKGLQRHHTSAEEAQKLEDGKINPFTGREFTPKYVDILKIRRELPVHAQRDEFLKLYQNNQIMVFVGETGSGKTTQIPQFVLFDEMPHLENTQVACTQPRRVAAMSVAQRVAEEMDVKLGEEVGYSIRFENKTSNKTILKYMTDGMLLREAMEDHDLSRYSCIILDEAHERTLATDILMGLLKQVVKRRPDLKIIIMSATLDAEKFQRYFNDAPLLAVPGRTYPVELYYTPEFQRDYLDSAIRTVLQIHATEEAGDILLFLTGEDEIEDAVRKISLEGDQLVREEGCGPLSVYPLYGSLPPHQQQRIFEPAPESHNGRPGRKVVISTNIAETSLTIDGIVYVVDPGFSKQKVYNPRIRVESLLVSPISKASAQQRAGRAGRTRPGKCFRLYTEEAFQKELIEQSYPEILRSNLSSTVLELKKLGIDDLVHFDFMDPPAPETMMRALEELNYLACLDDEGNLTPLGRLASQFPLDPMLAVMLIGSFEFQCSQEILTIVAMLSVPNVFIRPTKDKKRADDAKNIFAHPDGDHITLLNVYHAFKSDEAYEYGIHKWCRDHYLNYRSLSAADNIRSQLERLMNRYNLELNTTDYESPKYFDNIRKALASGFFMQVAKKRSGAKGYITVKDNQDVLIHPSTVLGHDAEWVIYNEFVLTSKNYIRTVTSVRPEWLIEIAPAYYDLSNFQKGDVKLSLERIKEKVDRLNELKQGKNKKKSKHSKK",
  "test": "cell-based or functional assay",
  "data": [
    {"binder": "GST-PINX1-HIS (natural protein, human, UniProt Q96BK5 1-328, looked up) MSMLAERRRKQKWAVDPQNTAWSNDDSKFGQRMLEKMGWSKGKGLGAQEQGATDHIKVQVKNNHLGLGATINNEDNWIAHQDDFNQLLAELNTCHGQETTDSSDKKEKKSFSLEEKSKISKNRVHYMKFTKGKDLSSRSKTDLDCIFGKRQSKKTPEGDASPSTPEENETTTTSAFTIQEYFAKRMAALKNKPQVPVPGSDISETQVERKRGKKRNKEATGKDVESYLQPKAKRHTEGKPERAEAQERVAKKKSAPAEEQLRGPCWDQSSKASAQDAGDHVQPPEGRDFTLKPKKRRGKKKLQKPVEIAEDATLEETLVKKKKKKDSK", "values": [
      {"measurement": "ATP hydrolysed by Prp43p-HIS after 60 min of incubation, with GST-PINX1-HIS against without (0.1 μM proteins, 100 μM ATP, 30°C)", "result": 9, "unit": "fold"}
    ]}
  ]
}
